Reference: patent publication US11931423B2, “Glucose oxidase-nanoparticle bioconjugates for cancer treatment” (UNIVERSITY OF PITTSBURGH—OF THE COMMONWEALTH SYSTEM OF …, priority 2017, dated 2024)

B1: glucose oxidase (protein, UniProt P13006 17-605, looked up)
Glucose oxidase: LPHYIRSNGIEASLLTDPKDVSGRTVDYIIAGGGLTGLTTAARLTENPNISVLVIESGSYESDRGPIIEDLNAYGDIFGSSVDHAYETVELATNNQTALIRSGNGLGGSTLVNGGTWTRPHKAQVDSWETVFGNEGWNWDNVAAYSLQAERARAPNAKQIAAGHYFNASCHGVNGTVHAGPRDTGDDYSPIVKALMSAVEDRGVPTKKDFGCGDPHGVSMFPNTLHEDQVRSDAAREWLLPNYQRPNLQVLTGQYVGKVLLSQNGTTPRAVGVEFGTHKGNTHNVYAKHEVLLAAGSAVSPTILEYSGIGMKSILEPLGIDTVVDLPVGLNLQDQTTATVRSRITSAGAGQGQAAWFATFNETFGDYSEKAHELLNTKLEQWAEEAVARGGFHNTTALLIQYENYRDWIVNHNVAYSELFLDTAGVASFDVWDLLPFTRGYVHILDKDPYLHHFAYDPQYFLNELDLLGQAAATQLARNISNSGAMQTYFAGETIPGDNLAYDADLSAWTEYIPYHFRPNYHGVGTCSMMPKEMGGVVDNAARVYGVQGLRVIDGSIPPTQMSSHVMTVFYAMALKISDAILEDYASMQ
B2: GOx-SPION: glucose oxidase conjugated to superparamagnetic iron oxide nanoparticle via Tz/TCO bioorthogonal ligation (conjugate, UniProt P13006 17-605, looked up)
Glucose oxidase: B1 Glucose oxidase
modifications: superparamagnetic iron oxide nanoparticle
B3: SPION-GOx-Cy7: GOx-SPION tagged with a fluorescent dye (Cy7 moiety) (conjugate, UniProt P13006 17-605, looked up)
Glucose oxidase: B1 Glucose oxidase
modifications: SPION conjugate, Cy7 dye

Tests used:
4T1 cells = assay: In vivo therapeutic efficacy in 4T1 tumor-bearing mice; settings: for tumor growth (relative tumor volume): 4T1 tumors, single tail vein injection, 21 days, SPION-GOx 5 mg/kg, SPION 5 mg/kg, GOx 8.5 nmol/kg
Method: 4T1 cells (2×10^5 cell/mouse) were implanted subcutaneously into the right shoulders of female balb/c mice (˜20 g). In vivo therapeutic efficacy experiments were performed when the tumor reached 6˜8 mm in average diameter (10 days after implant). 3-5 mice were randomly assigned to 4 groups, to which the following agents were administered via tail vein injection: Group A were administered with a mixture of unconjugated SPION and GOx at the dosage of 5 mg/kg and 8.5 nmol/kg respectively; Group B were administered with GOx at the dosage of 8.5 nmol/kg; Group C were administered with 200 μL saline as control; and Group D were administered with a single dose of 5 mg/mL SPION-GOx in saline at a dosage of 5 mg/kg. All the administration was made at about the same time of the day. The size and size distribution of SPION-GOx bioconjugates were determined using DLS before injection to ensure the conjugation was complete and no precipitation was formed in the suspension. The SPION-GOx PBS solution to be used on animal study was tested using a TMB assay to verify the effective generation of ROS. The weight and health conditions of the mice were monitored daily. The tumor sizes were measured and recorded every other day in the first 12 days, and then every 3 days until 21 days post injection, at which time point the tumors were harvested. The volumes of the tumors were calculated by the following equation: V=L×W^2/2.

ROS = assay: TMB-based ROS activity assay; format: biochemical; settings: in the presence of glucose, 37° C., 2 h, pH 4
Text: Production of ROS by the GOx-SPION bioconjugate was characterized by using a color agent 3,3′,5,5′-tetramethylbenzidine (TMB). TMB is known to be able to produce a blue color in the presence of ROS, which can be quantified by measuring the absorption at the wavelength of 650 nm. As a comparison, the levels of ROS produced by GOx and SPION alone, a mixture of GOx and SPION without conjugation, as well as the mAb-GOx-SPION bioconjugate were characterized.
The TMB-based ROS activity assay was carried out by using the following process. 20 μL SPION (5.0 mg/mL), GOx (1.0 mg/mL), a mixture of GOx (0.5 mg/mL) and SPION (2.5 mg/mL) without conjugation, GOx-SPION (5.0 mg/mL), and mAb-GOx-SPION (5.0 mg/mL) were each added into 380 μL of reaction buffer (0.1 M NaAc, pH 4, 50 μg TMB), followed by addition of either 100 μL of 100 mM glucose or 100 μL of DiH2O. After the mixtures were incubated at 37° C. for 2 h, the color change was detected with a Hitachi UV-Vis spectrophotometer.

[1] = tested on: 4T1 breast cancer xenografts; assay: Biodistribution in mice with 4T1 breast cancer xenografts; format: in vivo; settings: 150 μg, mice with 4T1 xenografts, 1 day after injection
Method: To visualize the biodistribution of GOx-SPION within mouse models, GOx-SPION was tagged with a fluorescent dye (Cy7 moiety). 150 μg of the resulting SPION-GOx-Cy7 bioconjugate was administered to 5 mice having 4T1 breast cancer xenografts. The biodistribution of the bioconjugates was imaged at 1 day, 3 days, 4 days, 5 days, 6 days, and 7 days after injection (see FIGS. 12A-12B).

Row | Molecule | tumor growth (relative tumor volume) (4T1 cells) | production of ROS (peak height at 650 nm, TMB) (ROS) | side effects (weight loss or death) (4T1 cells; 4T1 tumor mice, 5 mg/kg tail vein) | body weight loss during treatment (4T1 cells; mouse, in vivo, 5 mg/kg) | biodistribution (uptake) [1]
1 | B1 | inhibited tumor growth to a much lesser extent | neither GOx nor SPION alone is able to produce ROS |  |  | 
2 | B2 | significant slowdown of tumor growth | synergistic activity between conjugated GOx and SPION | no severe side effects | did not experience any significant body weight loss | 
3 | B3 |  |  |  |  | initial uptake of the bioconjugates was to tumor cells
